Measurements reported in publication PMC6166816 (Proceedings of the National Academy of Sciences of the …, 2018).
Values joined by “and” are separate entries in the source; they are usually repeats but may differ in a detail not shown here. Equal entries are not always repeated.

Columns and labels:
[1] = biological target: T1, MNoV (MNV1) strain CW3 VP1 protruding (P) domain (murine norovirus (MNV1 strain CW3), UniProt Q80J94 229-540); experiment: BLI
T1 sequence: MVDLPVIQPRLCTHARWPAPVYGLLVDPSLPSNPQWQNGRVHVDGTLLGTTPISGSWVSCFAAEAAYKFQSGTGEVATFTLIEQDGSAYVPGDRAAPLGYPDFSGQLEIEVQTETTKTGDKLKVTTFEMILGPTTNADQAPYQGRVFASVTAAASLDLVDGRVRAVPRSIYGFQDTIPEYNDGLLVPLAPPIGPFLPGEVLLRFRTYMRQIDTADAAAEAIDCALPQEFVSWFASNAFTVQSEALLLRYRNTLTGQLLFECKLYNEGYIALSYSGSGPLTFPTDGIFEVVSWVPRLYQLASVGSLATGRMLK

[2] = biological target: T1, MNoV (MNV1) strain CW3 VP1 protruding …; experiment: ITC
[3] = biological target: T1, MNoV (MNV1) strain CW3 VP1 protruding …; experiment: SPR

B1: Fc–CD300lf fusion protein (Fc fusion)
chain: EDPVTGPEEVSGQEQGSLTVQCRYTSGWKDYKKYWCQGVPQRSCKTLVETDASEQLVKKNRVSIRDNQRDFIFTVTMEDLRMSDAGIYWCGITKGGLDPMFKVTVNIGP
[1]
  Kd: 0.54 µM

B2: murine CD300lf ectodomain (receptor)
chain: MAEDPVTGPEEVSGQEQGSLTVQCRYTSGWKDYKKYWCQGVPQRSCKTLVETDASEQLVKKNRVSIRDNQRDFIFTVTMEDLRMSDAGIYWCGITKGGLDPMFKVTVNIGPVPT
[2]
  Kd: 24.5 µM and ~24.3 µM and 12 µM
  stoichiometry N: ~1
[3]
  Kd: 219 µM
